{"source": "paper PMC4184891", "about": "“Involvement of the Iron Regulatory Protein from Eisenia andrei Earthworms in the Regulation of Cellular Iron Homeostasis”", "key": {"[1]": {"target": "T1, rEaIRP (iron regulatory protein) (Eisenia andrei, UniProt I1VH49 1-890)", "T1 sequence": "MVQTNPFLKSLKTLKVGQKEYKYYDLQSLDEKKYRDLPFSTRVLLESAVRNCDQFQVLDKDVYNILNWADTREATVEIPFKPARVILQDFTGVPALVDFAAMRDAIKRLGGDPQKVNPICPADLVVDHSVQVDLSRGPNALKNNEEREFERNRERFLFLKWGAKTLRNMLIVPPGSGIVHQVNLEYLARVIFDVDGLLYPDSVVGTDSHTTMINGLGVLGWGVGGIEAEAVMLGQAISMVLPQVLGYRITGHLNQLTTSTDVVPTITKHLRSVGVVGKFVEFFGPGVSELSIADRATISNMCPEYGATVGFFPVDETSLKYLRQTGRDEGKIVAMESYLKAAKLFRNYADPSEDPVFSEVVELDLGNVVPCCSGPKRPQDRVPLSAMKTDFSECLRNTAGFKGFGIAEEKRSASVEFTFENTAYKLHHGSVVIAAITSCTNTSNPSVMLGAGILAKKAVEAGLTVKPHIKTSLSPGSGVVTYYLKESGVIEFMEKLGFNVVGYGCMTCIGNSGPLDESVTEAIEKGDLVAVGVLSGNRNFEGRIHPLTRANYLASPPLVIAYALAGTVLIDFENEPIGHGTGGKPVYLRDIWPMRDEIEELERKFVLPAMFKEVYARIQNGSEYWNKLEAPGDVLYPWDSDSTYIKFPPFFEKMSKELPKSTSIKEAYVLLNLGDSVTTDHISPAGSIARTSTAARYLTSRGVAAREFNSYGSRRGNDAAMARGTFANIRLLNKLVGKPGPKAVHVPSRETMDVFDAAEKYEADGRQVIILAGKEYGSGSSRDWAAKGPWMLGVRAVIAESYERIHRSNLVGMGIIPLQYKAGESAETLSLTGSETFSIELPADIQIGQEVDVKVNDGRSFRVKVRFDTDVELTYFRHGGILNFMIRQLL", "test": "EMSA; 6 nM RNA, 50 nM protein, tRNA; reduced by 200-fold unlabeled MAMconsIRE; LightShift RNA EMSA kit binding buffer (composition not given), 5% glycerol, 2 ug tRNA, 20 ul, 30 min room temperature; rEaIRP reduced with 1 mM 2-mercaptoethanol; 6% native PAGE in 0.5X TBE; pH and salt not given; liver extract lanes left out (protein not identified)", "conditions": "protein: recombinant; tags: N-terminal 6xHis (pRSET B); label: biotin; hairpin with bulged C"}, "[2]": {"target": "T1, rEaIRP (iron regulatory protein)", "test": "EMSA; 6 nM RNA, 5-150 nM protein, tRNA; complex visible at 20 nM, distinct at 50 nM; low affinity; competed by unlabeled EAconsIRE; LightShift RNA EMSA kit binding buffer (composition not given), 5% glycerol, 2 ug tRNA, 20 ul, 30 min room temperature; rEaIRP reduced with 1 mM 2-mercaptoethanol; 6% native PAGE in 0.5X TBE; pH and salt not given; liver extract lanes left out (protein not identified)", "conditions": "protein: recombinant; tags: N-terminal 6xHis (pRSET B); label: biotin; hairpin; optimal fold has unpaired U one nt closer to the loop instead of bulged C"}}, "data": [{"binder": "GGGUUUCCUGCUUCAACAGUGCUUGGACGGAACCC (structured_RNA, Bio-11-UTP incorporated in transcription (probe))", "note": "[MAMconsIRE]", "values": [{"measurement": "binding result", "setting": "[1]", "value": "binds"}]}, {"binder": "GGGUGCUUUGCUGCGUCAGUGUGCGUGCGAGCUAA (structured_RNA, Bio-11-UTP incorporated in transcription (probe))", "note": "[EAconsIRE]", "values": [{"measurement": "binding result", "setting": "[2]", "value": "binds"}]}]}
